According to patent US20240327495A1 (OXFORD UNIVERSITY INNOVATION, published 2024):

Target: C. difficile toxin B glucosyltransferase domain (GTD, residues 2-543) (Clostridium difficile, UniProt P18177 2-543)
Sequence (P18177 2-543 limits assumed): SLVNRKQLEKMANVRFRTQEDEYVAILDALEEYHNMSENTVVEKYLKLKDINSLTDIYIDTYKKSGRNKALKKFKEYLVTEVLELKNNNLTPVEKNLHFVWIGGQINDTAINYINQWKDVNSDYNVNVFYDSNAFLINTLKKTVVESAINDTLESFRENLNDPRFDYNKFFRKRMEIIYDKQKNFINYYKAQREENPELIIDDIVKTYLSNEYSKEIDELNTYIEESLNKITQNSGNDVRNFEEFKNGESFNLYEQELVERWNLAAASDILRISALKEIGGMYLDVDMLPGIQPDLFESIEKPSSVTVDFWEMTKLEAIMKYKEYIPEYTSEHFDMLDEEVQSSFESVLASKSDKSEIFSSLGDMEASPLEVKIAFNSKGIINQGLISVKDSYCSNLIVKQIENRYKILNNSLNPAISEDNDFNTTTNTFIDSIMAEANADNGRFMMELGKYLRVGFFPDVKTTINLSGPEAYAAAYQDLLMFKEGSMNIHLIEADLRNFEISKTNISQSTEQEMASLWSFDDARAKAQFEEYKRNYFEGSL

B1: GT01 R63A (designed binder, not shown: small tags and cut ends)
chain: DFVLDNEGNPLENGGTYYILSDYGRQLFGGIRAAPTGNERCPLTVVQSLFRNHRDKGIGTIISSPYAIRFIAEGHPLSLKFDSFAVIMLCVGIPTEWSVVEDLPEGPAVKIGENKDAMDGWFRLERVSDDEFNNYKLVFCPQQAEDDKCGDIGISIDHDDGTRRLVVSKNKPLVVQFQKLDKESL
  EC50 (read off the curve): ~7 nM
